Measurements reported in US8822187B1, “Polypeptides, nucleic acid molecules, and methods for synthesis of triterpenes” (University of Kentucky Research Foundation, priority 2011, dated 2014).
Entries after “also recorded” stand apart in the source; their conditions may differ.

B1: Botryococcus braunii race B squalene synthase-like 1 (SSL-1), wild type, hexa-histidine tagged, SEQ ID NO: 2 (Botryococcus braunii) (protein)
chain: MTMHQDHGVMKDLVKHPNEFPYLLQLAATTYGSPAAPIPKEPDRAFCYNTLHTVSKGFPRFVMRLPQELQDPICIFYLLLRALDTVEDDMNLKSETKISLLRVFHEHCSDRNWSMKSDYGIYADLMERFPLVVSVLEKLPPATQQTFRENVKYMGNGMADFIDKQILTVDEYDLYCHYVAGSCGIAVTKVIVQFNLATPEADSYDFSNSLGLLLQKANIITDYNEDINEEPRPRMFWPQEIWGKYAEKLADFNEPENIDTAVKCLNHMVTDAMRHIEPSLKGMVYFTDKTVFRALALLLVTAFGHLSTLYNNPNVFKEKVRQRKGRIARLVMSSRNVPGLFRTCLKLANNFESRCKQETANDPTVAMTIKRLQSIQATCRDGLAKYDTPSGLKSFCAAPTPTK
B2: SSL-2: Botryococcus braunii race B squalene synthase-like 2 enzyme; bacterial form is truncated SSL-2-tr2 (protein)
chain: MVKLVEVLQHPDEIVPILQMLHKTYRAKRSYKDPGLAFCYGMLQRVSRSFSVVIQQLPDELRHPICVFYLILRALDTVEDDMNLPNEVKIPLLRTFHEHLFDRSWKLKCGYGPYVDLMENYPLVTDVFLTLSPGAQEVIRDSTRRMGNGMADFIGKDEVHSVAEYDLYCHYVAGLVGSAVAKIFVDSGLEKENLVAEVDLANNMGQFLQKTNVIRDYLEDINEEPAPRMFWPREIWGKYAQELADFKDPANEKAAVQCLNHMVTDALRHCEIGLNVIPLLQNIGILRSCLIPEVMGLRTLTLCYNNPQVFRGVVKMRRGETAKLFMSIYDKRSFYQTYLRLANELEAKCKGEASGDPMVATTLKHVHGIQKSCKAALSSKELLAKSGSALTDDPAIRLLLLVGVVAYFAYAFNLGDVRGEHGVRALGSILDLSQKGLAVASVALLLLVLLARSRLPLLTSASSKQ

What was measured:
[1] = Purified bacterial-expressed enzymes incubated with FPP, products by GC-MS or TLC/scintillation counting; format: biochemical; details: for squalene or botryococcene biosynthesis by purified enzyme in vitro: FPP as substrate, enzyme assayed alone
Text: (§1) FIG. 6 depicts the functional characterization of the squalene synthase-like genes of Botryococcus braunii race B. The squalene synthase-like genes, SSL-1, SSL-2 and SSL-3, were expressed in yeast separately (SSL-1 (B), SSL-2(C) or SSL-3(D)) or in combinations (SSL-1+SSL-2(E), SSL-1+SSL-3(F)) and the hexane extractable metabolites profiled by GC-MS. The chemical profile of yeast not engineered with any gene constructs serves as the background control (A). […] Data (J) represents mean±S.E.M. obtained from three independent experiments (n=3). The chromatograms (A-I) are also annotated for the elution behavior of botryococcene (1), squalene (2), presqualene alcohol (3) and bisfarnesyl ether (4).
The recombinant vectors were transformed into E. coli strain BL21(DE3) according to the manufacturer's recommendations (Novagen). The selected lines were grown with kanamycin selection at 37° C. with vigorous shaking until the cultures reached an optical density of ˜0.8 (OD600 nm), then expression of the corresponding SSL gene induced by addition of 0.5 mM isopropylthio-β-D-galactoside (IPTG) and the cultures incubate for an additional 3 to 20 h with shaking at room temperature. One hundred ml of the culture was subject to centrifugation at 4,000 g for 10 min, the pelleted cells resuspended in 10 ml of lysis buffer containing 50 mM NaH2PO4, pH 7.8, 300 mM NaCl, 10 mM imidazole, 1 mM MgCl2, 1 mM PMSF, 1% glycerol (v/v), then sonicated 4× for 10 sec with a microprobe sonicator at 60% maximum power. The samples were cooled on ice for 2 min between sonication treatments. The sonicate was centrifuged at 16,000 g for 10 min at 4° C. and the supernatant used for purification of the hexa-histidine tagged enzymes.
Purification of the bacterial expressed enzymes was afforded by the amino-terminal hexa-histidine tag using His-Select Cobalt affinity gel (Sigma) columns according the manufacturer's recommendations. Recovery of proteins with the expected molecular sizes was determined by SDS-PAGE. The purified protein fractions were concentrated using Amicon Ultra (0.5 ml, 10K) centrifugation filter units and stored in 300 mM NaCl, 20 mM Tris-HCl pH 7.5, 5 mM dithiothreitol, 2 mM MgCL2, 50% glycerol (v/v) at −20° C. for 2-3 weeks without noticeable loss of activity.
Typical enzyme assays were initiated by mixing aliquots of purified enzyme with 50 mM Mops, pH 7.3, 20 mM MgCl2, 2.5 mM 2-mercaptoethanol, 10 μM [1-^3H]-FPP (˜2×10^5 dpm total), and 2 mM NADPH in total reaction volume of 50 μl. Reactions were incubated at 37° C. for 1 h and then extracted with 100 μl n-hexane or 100 ul MTBE. Forty μl of the n-hexane or MTBE extract was then spotted onto silica TLC plates with authentic standards of botryococcene and squalene and developed with n-hexane, or standards of bisfarnesyl ether and developed with n-hexane:MTBE, 25:1. The standards were visualized with iodine vapors and TLC zones corresponding to the standards were scrapped and analyzed by scintillation spectrometry. If Botryococcus lysate was added to enzyme assays, typically 5 μl of lysate (corresponding to 10 μg total protein) prepared from B. braunii cells according to Okada et al. (1) was added. […] Extracts were resuspended in 50 μl hexane and an aliquot analyzed by GC-MS with a Varian CP-3800 GC coupled to a Varian Saturn 2200 MS/MS (Varian Medical Systems) using a Supelco SLB-5 ms fused silica capillary column (30 m×0.25 mm×0.25 μM film thickness, Supelco). […]

TN7 yeast line = experiment: Expression of SSL genes in TN7 yeast line, hexane extractable metabolites by GC-MS; format: cell-based
Text: as §1
FIG. 10 includes a comparison of botryococcene production in yeast engineered with different configurations of SSL-1 and SSL-3. Yeast line TN7 was engineered with the SSL-1 and SSL-3 genes on separate plasmids (squares), with gene fusions (SSL-1 fused to SSL-3 via a triplet repeat of GGSG (triangles), or vice versa (diamonds)), or with 63 or 71 amino acids of the carboxy terminus of the Botryococcus squalene synthase, sequences containing a membrane spanning domain, appended to the carboxy termini of the SSL-1 and SSL-3 enzymes, respectively (circles). The data represents mean±S.E.M.
The various recombinant yeast expression vectors were introduced into the TN7 yeast line via lithium acetate transformation, followed by selection for uracil and leucine auoxtrophic growth (Takahashi, et al. (2007)). […] Individual colonies of TN7 and the various TN7-transformants were subsequently grown in 25 ml of YPDE (nutrient rich) or Yeast Synthetic Drop-out medium (selection) for the indicated time at 25° C. before analyzing the cultures for production of novel triterpene components. In brief, 1 ml aliquots of the culture were combined with 1 ml of acetone, vigorously mixed, and incubated at room temperature for 10 min. One ml of hexane was added and mixed vigorously for 60 sec. […] The dried extract was resuspended in 50-500 μl of n-hexane and a 1 μl aliquot analyzed by GC-MS as described above. […]

[2] = SSL-2 incubated by itself, NADPH-dependent

Molecule	squalene or botryococcene biosynthesis by purified enzyme in vitro [1]	products accumulating in yeast (TN7 yeast line; gene expressed separately in yeast)	bisfarnesyl ether share of products [1, 2] [%]	squalene share of products [1, 2] [%]	squalene accumulating, share of the total (TN7 yeast line; expressed in yeast)
B1	did not exhibit either squalene nor botryococcene biosynthesis	accumulated to significant levels	–	–	–
B2	neither bacterial-expressed, purified enzymes exhibited any botryococcene biosynthesis; also recorded: low capacity for squalene biosynthesis	–	~90	~10	~10 % of the total
